Like-named read-outs stand apart in the source and are kept apart here.

The test system of data set [1] is T1, APG08290.1 (Bacillus sp.).
T1 sequence: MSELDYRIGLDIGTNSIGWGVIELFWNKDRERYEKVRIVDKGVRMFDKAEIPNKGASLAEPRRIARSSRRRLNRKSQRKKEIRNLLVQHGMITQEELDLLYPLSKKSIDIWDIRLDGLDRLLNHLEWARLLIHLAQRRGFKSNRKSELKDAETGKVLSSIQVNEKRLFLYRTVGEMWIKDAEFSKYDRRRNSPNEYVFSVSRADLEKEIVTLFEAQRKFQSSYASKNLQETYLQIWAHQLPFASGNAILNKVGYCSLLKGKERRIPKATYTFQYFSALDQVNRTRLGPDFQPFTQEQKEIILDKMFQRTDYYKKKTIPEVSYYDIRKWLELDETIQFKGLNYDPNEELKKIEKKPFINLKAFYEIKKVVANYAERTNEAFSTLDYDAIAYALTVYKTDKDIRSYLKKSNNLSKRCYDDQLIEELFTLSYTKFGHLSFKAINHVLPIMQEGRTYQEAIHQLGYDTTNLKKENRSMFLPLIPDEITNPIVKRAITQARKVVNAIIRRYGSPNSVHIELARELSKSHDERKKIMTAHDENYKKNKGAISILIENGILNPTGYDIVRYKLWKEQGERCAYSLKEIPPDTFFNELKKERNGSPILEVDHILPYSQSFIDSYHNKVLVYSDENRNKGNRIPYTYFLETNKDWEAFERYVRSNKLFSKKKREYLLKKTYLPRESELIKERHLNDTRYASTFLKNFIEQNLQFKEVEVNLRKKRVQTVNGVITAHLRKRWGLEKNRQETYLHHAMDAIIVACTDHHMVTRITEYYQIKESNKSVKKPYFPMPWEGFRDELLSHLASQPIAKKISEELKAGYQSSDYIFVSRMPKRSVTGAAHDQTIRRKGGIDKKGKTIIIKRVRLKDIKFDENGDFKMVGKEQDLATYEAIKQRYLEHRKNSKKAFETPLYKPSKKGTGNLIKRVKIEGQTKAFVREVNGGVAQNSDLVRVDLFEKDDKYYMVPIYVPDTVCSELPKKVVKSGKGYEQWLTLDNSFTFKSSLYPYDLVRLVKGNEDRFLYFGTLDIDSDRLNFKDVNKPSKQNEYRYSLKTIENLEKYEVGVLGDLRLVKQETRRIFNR
Kind of data set: cleavage_in_vitro.

In data set [2] the test system is T2, APG05459.1 (Enterococcus sp.).
T2 sequence: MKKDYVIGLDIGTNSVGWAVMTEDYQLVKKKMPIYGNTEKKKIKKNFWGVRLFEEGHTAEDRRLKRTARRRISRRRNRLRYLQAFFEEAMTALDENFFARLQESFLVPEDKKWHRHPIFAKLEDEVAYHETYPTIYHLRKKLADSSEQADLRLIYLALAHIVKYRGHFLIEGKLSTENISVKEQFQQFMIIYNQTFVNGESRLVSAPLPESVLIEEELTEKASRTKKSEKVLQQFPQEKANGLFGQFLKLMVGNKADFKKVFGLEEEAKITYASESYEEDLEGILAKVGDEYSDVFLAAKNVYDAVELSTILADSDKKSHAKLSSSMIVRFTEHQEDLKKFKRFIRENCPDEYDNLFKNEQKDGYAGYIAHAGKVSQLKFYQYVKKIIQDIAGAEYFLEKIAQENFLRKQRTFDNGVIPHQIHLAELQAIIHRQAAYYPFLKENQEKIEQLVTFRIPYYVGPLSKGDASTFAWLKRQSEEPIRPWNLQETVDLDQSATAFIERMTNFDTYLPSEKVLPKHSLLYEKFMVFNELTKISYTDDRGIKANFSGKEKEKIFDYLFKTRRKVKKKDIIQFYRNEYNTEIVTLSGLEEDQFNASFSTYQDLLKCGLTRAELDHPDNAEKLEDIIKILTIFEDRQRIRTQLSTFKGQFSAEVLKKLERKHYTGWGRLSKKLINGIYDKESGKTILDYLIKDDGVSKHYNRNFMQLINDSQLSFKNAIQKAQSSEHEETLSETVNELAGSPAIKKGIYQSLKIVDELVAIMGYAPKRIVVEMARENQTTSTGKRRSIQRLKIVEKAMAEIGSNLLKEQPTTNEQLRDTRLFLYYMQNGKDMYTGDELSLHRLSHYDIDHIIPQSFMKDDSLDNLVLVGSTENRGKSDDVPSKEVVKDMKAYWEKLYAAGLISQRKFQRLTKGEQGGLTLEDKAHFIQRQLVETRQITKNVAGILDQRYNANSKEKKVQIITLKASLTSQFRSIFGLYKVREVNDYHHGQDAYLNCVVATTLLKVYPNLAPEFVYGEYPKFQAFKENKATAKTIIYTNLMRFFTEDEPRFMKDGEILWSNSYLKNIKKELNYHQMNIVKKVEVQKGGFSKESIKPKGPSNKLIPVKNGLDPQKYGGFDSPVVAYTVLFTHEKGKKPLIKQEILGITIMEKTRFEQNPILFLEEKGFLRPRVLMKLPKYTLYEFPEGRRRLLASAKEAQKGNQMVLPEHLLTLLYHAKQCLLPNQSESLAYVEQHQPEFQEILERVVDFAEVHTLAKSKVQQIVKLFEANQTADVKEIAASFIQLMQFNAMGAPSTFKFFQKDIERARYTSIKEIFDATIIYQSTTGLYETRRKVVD
Kind of data set: cleavage_in_vitro.

“GAGCGGACAGCAGCUUCCUAUAUCUCGUACNNNNNNNNNNNNNNNNNNNNNNNNNGUCAUAGUUCCAUGAAAGCCAAAAGUGGCUUUGAUGUUUCUAUGAUAAGGGUUUCGGCCCGUGGCGUCGGGGAUCGCCUGCCCAUUCCGAUGGGCUUCUCCCCAUUUAUU / CAGCGGACAGCAGCTTCCTATATCTCGTAC / GTACGAGATATAGGAAGCTGCTGTCCGCTG [Sequence 1 sgRNA for APG08290.1 ; target mismatch 30]” displayed an activity in data set [1] of 100 % cleaved. Sequence “GAGCGGACAGCAGCUUCCUAUAUCUCGUACNNNNNNNNNNNNNNNNNNNNNNNNNGUCAUAGUUCCAUGAAAGCCAAAAGUGGCUUUGAUGUUUCUAUGAUAAGGGUUUCGGCCCGUGGCGUCGGGGAUCGCCUGCCCAUUCCGAUGGGCUUCUCCCCAUUUAUU / GAGCGGACAGCACCTTCCTATATCTCGTAC / GTACGAGATATAGGAAGGTGCTGTCCGCTC [Sequence 1 sgRNA for APG08290.1 ; target mismatch 18]” had an activity in data set [1] of 100 % cleaved.

“GAGCGGACAGCAGCUUCCUAUAUCUCGUACNNNNNNNNNNNNNNNNNNNNNNNNNGUCAUAGUUCCAUGAAAGCCAAAAGUGGCUUUGAUGUUUCUAUGAUAAGGGUUUCGGCCCGUGGCGUCGGGGAUCGCCUGCCCAUUCCGAUGGGCUUCUCCCCAUUUAUU / GAGCGGACAGCAGCTTCCTAAATCTCGTAC / GTACGAGATTTAGGAAGCTGCTGTCCGCTC [Sequence 1 sgRNA for APG08290.1 ; target mismatch 10]” yielded an activity in data set [1] of 75 % cleaved. On the same count and under the same terms, next, “GAGCGGACAGCAGCUUCCUAUAUCUCGUACNNNNNNNNNNNNNNNNNNNNNNNNNGUCAUAGUUCCAUGAAAGCCAAAAGUGGCUUUGAUGUUUCUAUGAUAAGGGUUUCGGCCCGUGGCGUCGGGGAUCGCCUGCCCAUUCCGAUGGGCUUCUCCCCAUUUAUU / GAGCGGACAGCAGCTTCCTATAACTCGTAC / GTACGAGTTATAGGAAGCTGCTGTCCGCTC [Sequence 1 sgRNA for APG08290.1 ; target mismatch 8]”: 0 % cleaved; “GAGCGGACAGCAGCUUCCUAUAUCUCGUACNNNNNNNNNNNNNNNNNNNNNNNNNGUCAUAGUUCCAUGAAAGCCAAAAGUGGCUUUGAUGUUUCUAUGAUAAGGGUUUCGGCCCGUGGCGUCGGGGAUCGCCUGCCCAUUCCGAUGGGCUUCUCCCCAUUUAUU / GAGCGGACAGCAGCTTCCTATATCTCGAAC / GTTCGAGATATAGGAAGCTGCTGTCCGCTC [Sequence 1 sgRNA for APG08290.1 ; target mismatch 3]”: 73 % cleaved. Take “GAGCGGACAGCAGCUUCCUAUAUCUCGUACNNNNNNNNNNNNNNNNNNNNNNNNNGUCAUAGUUCCAUGAAAGCCAAAAGUGGCUUUGAUGUUUCUAUGAUAAGGGUUUCGGCCCGUGGCGUCGGGGAUCGCCUGCCCAUUCCGAUGGGCUUCUCCCCAUUUAUU / GAGCGGACAGCAGCTTCCTATATCTCGTAC / GTACGAGATATAGGAAGCTGCTGTCCGCTC”: the activity in data set [1] (incompatible PAM) is 0 % cleaved. Turning to “GAGCGGACAGCAGCUUCCUAUAUCUCGUACNNNNNNNNNNNNNNNNNNNNNNNNNGUCAUAGUUCCAUGAAAGCCAAAAGUGGCUUUGAUGUUUCUAUGAUAAGGGUUUCGGCCCGUGGCGUCGGGGAUCGCCUGCCCAUUCCGAUGGGCUUCUCCCCAUUUAUU / GAGCGGACAGCAGCTTCCTATATCTCGTAC / GTACGAGATATAGGAAGCTGCTGTCCGCTC [Sequence 1 sgRNA for APG08290.1 ; Sequence 1 target]”, the activity in data set [1] (PAM NNRNCC, NTS cut 4, TS cut 3, 1 nt 5' overhang (Table 3)) amounted to 95 % cleaved.

For “GAGCGGACAGCAGCUUCCUAUAUCUCGUACNNNNNNNNNNNNNNNNNNNNNNNNNGUCAUAGUUCCAUGAAAGCCAAAAGUGGCUUUGAUGUUUCUAUGAUAAGGGUUUCGGCCCGUGGCGUCGGGGAUCGCCUGCCCAUUCCGAUGGGCUUCUCCCCAUUUAUU / GAGCGGACAGCAGCTTCCTATATCTCGTAG / CTACGAGATATAGGAAGCTGCTGTCCGCTC [Sequence 1 sgRNA for APG08290.1 ; target mismatch 1]”, the activity in data set [1] came out at 0 % cleaved. On the same count and under the same terms, next, “GAGCGGACAGCAGCUUCCUAUAUCUCGUACNNNNNNNNNNNNNNNNNNNNNNNNNGUCAUAGUUCCAUGAAAGCCAAAAGUGGCUUUGAUGUUUCUAUGAUAAGGGUUUCGGCCCGUGGCGUCGGGGAUCGCCUGCCCAUUCCGAUGGGCUUCUCCCCAUUUAUU / GAGCGGACAGCAGCTTCCTATATCTCGTTC / GAACGAGATATAGGAAGCTGCTGTCCGCTC [Sequence 1 sgRNA for APG08290.1 ; target mismatch 2]”: 0 % cleaved. Still for that read-out and setting: next, “GAGCGGACAGCAGCUUCCUAUAUCUCGUACNNNNNNNNNNNNNNNNNNNNNNNNNGUCAUAGUUCCAUGAAAGCCAAAAGUGGCUUUGAUGUUUCUAUGAUAAGGGUUUCGGCCCGUGGCGUCGGGGAUCGCCUGCCCAUUCCGAUGGGCUUCUCCCCAUUUAUU / GAGCGGACAGCAGCTTCCTATATCTGGTAC / GTACCAGATATAGGAAGCTGCTGTCCGCTC [Sequence 1 sgRNA for APG08290.1 ; target mismatch 5]”: 0 % cleaved. Same read-out and setting: then “GAGCGGACAGCAGCUUCCUAUAUCUCGUACNNNNNNNNNNNNNNNNNNNNNNNNNGUCAUAGUUCCAUGAAAGCCAAAAGUGGCUUUGAUGUUUCUAUGAUAAGGGUUUCGGCCCGUGGCGUCGGGGAUCGCCUGCCCAUUCCGAUGGGCUUCUCCCCAUUUAUU / GAGCGGACAGCAGCTTCGTATATCTCGTAC / GTACGAGATATACGAAGCTGCTGTCCGCTC [Sequence 1 sgRNA for APG08290.1 ; target mismatch 13]”, with 28 % cleaved. For the sequence “GAGCGGACAGCAGCUUCCUAUAUCUCGUACNNNNNNNNNNNNNNNNNNNNNNNNNGUCAUAGUUCCAUGAAAGCCAAAAGUGGCUUUGAUGUUUCUAUGAUAAGGGUUUCGGCCCGUGGCGUCGGGGAUCGCCUGCCCAUUCCGAUGGGCUUCUCCCCAUUUAUU / GAGCGGACTGCAGCTTCCTATATCTCGTAC / GTACGAGATATAGGAAGCTGCAGTCCGCTC [Sequence 1 sgRNA for APG08290.1 ; target mismatch 22]”, the activity in data set [1] amounted to 100 % cleaved. In data set [2], “GAGCGGACAGCAGCUUCCUAUAUCUCGUACNNNNNNNNNNNNNNNNNNNNNNNNNGUUUUAGAGUCAUGUUAAAGAACAUAGCAAGUUAAAAUAAGGUUUUAACCGUAAUCAACUGUAAAGUGGCGCUGUUUCGGCGCUUUUUUUGUUU / CAGCGGACAGCAGCTTCCTATATCTCGTAC / GTACGAGATATAGGAAGCTGCTGTCCGCTG [Sequence 1 sgRNA for APG05459.1 ; target mismatch 30]” registered an activity of 57 % cleaved.

Turning to “GAGCGGACAGCAGCUUCCUAUAUCUCGUACNNNNNNNNNNNNNNNNNNNNNNNNNGUUUUAGAGUCAUGUUAAAGAACAUAGCAAGUUAAAAUAAGGUUUUAACCGUAAUCAACUGUAAAGUGGCGCUGUUUCGGCGCUUUUUUUGUUU / GAGCGGACAGCACCTTCCTATATCTCGTAC / GTACGAGATATAGGAAGGTGCTGTCCGCTC [Sequence 1 sgRNA for APG05459.1 ; target mismatch 18]”, in data set [2], the activity was determined as 0 % cleaved.

The values above are taken from patent publication US20250283117, “RNA-GUIDED NUCLEASES AND ACTIVE FRAGMENTS AND VARIANTS THEREOF AND METHODS OF USE” (Life Edit Therapeutics, Inc., published 2025).
